Values belong to the binder of their own block, whether it stands above or below them. No end group written: not given here.
B5: soluble EPCR (endothelial protein C receptor) (receptor, UniProt Q9UNN8 18-210, looked up)
chain: SQDASDGLQRLHMLQISYFRDPYHVWYQGNASLGGHLTHVLEGPDTNTTIIQLQPLQEPESWARTQSGLQSYLLQFHGLVRLVHQERTLAFPLTIRCFLGCELPPEGSRAHVFFEVAVNGSSFVSFRPERALWQADTQVTSGVVTFTLQQLNAYNRTRYELREFLEDTCVQYVQKHISAENTKGSQTSRSYTS
notes: also called sEPCR

Legend:
[1] = target: B5; assay: solid-phase ELISA, sEPCR coated on the plate, detection with anti-protein C polyclonal antibody; Kd(app)
Experimental: (§1) To evaluate the interaction of the wild-type PC, PC-Gla peptides, TFG, and TFMG with EPCR, 96-well flat microtiter plates were coated with soluble EPCR in 20 mM carbonate-bicarbonate buffer (pH 9.6) containing 0.02% sodium azaide, overnight at 4° C. After the plates were washed three times in TBS buffer (0.1 M NaCl, 0.02 M Tris-HCl, pH 7.4) containing 0.05% Tween 20, the plates were incubated with wild-type PC, PC-Gla peptides, TFG, and TFMG ([…]) diluted in the buffer for 1 h. After the plates were rinsed again, they were incubated with a goat anti-protein C polyclonal antibody (1:1000) for 1 h. Then, the plates were washed and incubated with rabbit anti-goat IgG (KPL, MD, 1:1000) for 1 h. After washing, the plates were incubated with 2,2′-azino-di(3-ethylbenzthiazoline-6-sulfonate) (ABTS; KPL, Gaithersburg, Md.). Colorimetric analysis was performed by measuring absorbance values at 405 nm.
(§2) First, a solid-phase ELISA was used to measure the binding affinity of TFG or TFMG toward the PC-Gla receptor, EPCR. In this assay, the efficiency of their binding to soluble EPCR (sEPCR) was compared. […] TFG and TFMG, respectively.

[2] = target: T1, TFMG (TRAP-ferritin monomer fragment-linker-PC-Gla fusion polypeptide)
T1 chain: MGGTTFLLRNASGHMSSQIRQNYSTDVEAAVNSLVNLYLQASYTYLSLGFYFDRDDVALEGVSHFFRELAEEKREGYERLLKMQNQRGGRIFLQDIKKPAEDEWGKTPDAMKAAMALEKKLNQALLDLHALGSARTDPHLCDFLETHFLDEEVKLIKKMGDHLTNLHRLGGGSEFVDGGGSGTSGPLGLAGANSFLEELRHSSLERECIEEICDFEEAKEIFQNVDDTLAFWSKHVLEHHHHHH

EPCR in mouse vena cava = target: T2, EPCR in mouse vena cava (mouse, UniProt Q64695 18-242); assay: immunohistochemistry of mouse vena cava after i.v. injection of the fluorescence-labelled molecule; comparison with TFG and TFMG
T2 construct: whole, on cells; Endogenous receptor in tissue sections of C57BL/6 mice; also called EPCR (mouse, in vivo)
T2 sequence (looked up): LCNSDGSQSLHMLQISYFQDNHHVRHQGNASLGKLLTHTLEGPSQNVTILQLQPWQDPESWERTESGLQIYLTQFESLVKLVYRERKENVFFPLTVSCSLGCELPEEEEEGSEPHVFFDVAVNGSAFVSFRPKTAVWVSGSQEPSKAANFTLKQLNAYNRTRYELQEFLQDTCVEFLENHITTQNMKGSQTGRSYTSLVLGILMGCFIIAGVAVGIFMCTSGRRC
Experimental: Twenty-four hours prior to CLP surgery, fluorescence labeled-PC-Gla, TFG, and TFMG (200 nM/mouse) was intravenously injected into the mice, respectively. After 24 h, mouse vena cava was enucleated and fixed in visikol for 24 h. Subsequently, vena cava was embedded in optimum cutting temperature (OCT) compound (Tissue Tek) at −80° C. Consecutive sections were incubated with anti-EPCR antibody (Santa Cruz, Calif.), anti-rabbit Alexa 488 (green), anti-CD31 antibody, and anti-rabbit Alexa 350 (blue), and observed by confocal microscopy at 63× magnification (TCS-SP5, Leica microsystem, Germany).

wild type Protein C (PC) = target: T3, wild type Protein C (PC) (UniProt P04070 43-461); assay: solid-phase ELISA, sEPCR coated on the plate, detection with anti-protein C polyclonal antibody; Kd(app)
T3 construct: also called wild-type PC
Experimental: as §1, §2

B2: MMP-2 (matrix metalloproteinase-2), p-aminophenylmercuric acetate-activated (protein)
chain: YNFFPRKPKWDKNQITYRIIGYTPDLDPETVDDAFARAFQVWSDVTPLRFSRIHDGEADIMINFGRWEHGDGYPFDGKDGLLAHAFAPGTGVGGDSHFDDDELWTLGEGQVVRVKYGNADGEYCKFPFLFNGKEYNSCTDTGRSDGFLWCSTTYNFEKDGKYGFCPHEALFTMGGNAEGQPCKFPFRFQGTSYDSCTTEGRTDGYRWCGTTEDYDRDKKYGFCPETAMSTVGGNSEGAPCVFPFTFLGNKYESCTSAGRSDGKMWCATTANYDDDRKWGFCPDQGYSLFLVAAHEFGHAMGLEHSQDPGALMAPIYTYTKNFRLSQDDIKGIQELYGASPDIDLGTGPTPTLGPVTPEICKQDIVFDGIAQIRGEIFFFKDRFIWRTVTPRDKPMGPLLVATFWPELPEKIDAVYEAPQEEKAVFFAGNEYWIYSASTLERGYPKPLTSLGLPPDVQRVDAAFNWSKNKKTYIFAGDKFWRYNEVKKKMDPGFPKLIADAWNAIPDNLDAVVDLQGGGHSYFFKGAYYLKLENQSLKSVKFGSIKSDWLGC
- cleavage of the linker and release of PC-Gla (HPLC, MALDI-ToF) [2]: TFMG was cleaved by MMP-2 to release PC-Gla in agreement with the calculated mass (5,518.6 Da by MALDI-ToF)

Binder: B5
- Kd (wild type Protein C (PC)): ~31.3 nM

More lines, now with the values ahead:

- Kd [1]: 31.5 nM
B1: TFG (TRAP-ferritin monomer fragment-PC-Gla fusion polypeptide) (other)
chain: MGGTTFLLRNASGHMSSQIRQNYSTDVEAAVNSLVNLYLQASYTYLSLGFYFDRDDVALEGVSHFFRELAEEKREGYERLLKMQNQRGGRIFLQDIKKPAEDEWGKTPDAMKAAMALEKKLNQALLDLHALGSARTDPHLCDFLETHFLDEEVKLIKKMGDHLTNLHRLGGGSEFVDGGGSGTSANSFLEELRHSSLERECIEEICDFEEAKEIFQNVDDTLAFWSKHVLEHHHHHH
notes: also called TRAP-ferritin-PC-Gla; TFG nanocage

- Kd [1]: 30.7 nM
B3: TFMG (TRAP-ferritin monomer fragment-linker-PC-Gla fusion polypeptide) (other)
chain: MGGTTFLLRNASGHMSSQIRQNYSTDVEAAVNSLVNLYLQASYTYLSLGFYFDRDDVALEGVSHFFRELAEEKREGYERLLKMQNQRGGRIFLQDIKKPAEDEWGKTPDAMKAAMALEKKLNQALLDLHALGSARTDPHLCDFLETHFLDEEVKLIKKMGDHLTNLHRLGGGSEFVDGGGSGTSGPLGLAGANSFLEELRHSSLERECIEEICDFEEAKEIFQNVDDTLAFWSKHVLEHHHHHH
notes: also called TMFG; TFME

- binding result (EPCR in mouse vena cava): binds
B4: PC-Gla peptide (Protein C Gla domain polypeptide) (peptide)
peptide: ANSFLEELRHSSLERECIEEICDFEEAKEIFQNVDDTLAFWSKHV
modifications: ends and bridges not checked; also: labelled with a fluorescent dye for cell and in vivo assays
notes: No gamma-carboxylation of Glu residues is stated; It was labelled with a fluorescent dye for the cell and in vivo assays; also called PC-Gla domain; PC-Gla peptides

— patent US20190016764A1 (KYUNGPOOK NATIONAL UNIVERSITY INDUSTRY ACADEMIC COOPERATION …, published 2019)
